Test [1] has as its target Rab8A S111E (recombinant) (human) (UniProt P61006).
Test [2] deals with Rab8A wild-type (recombinant) (human) (UniProt P61006).
In test [3] the target is Rab8A S111A (recombinant) (human) (UniProt P61006).

B1: Rabin8(153-237) (domain or fragment)
chain: VREKGYERLKEELAKAQRELKLKDEECERLSKVRDQLGQELEELTASLFEEAHKMVREANIKQATAEKQLKEAQGKIDVLQAEVA
B1: the k cat/K M of Rabin8-catalysed mantGDP release from Rab8A (1 uM Rab, 100 uM GDP, 0.5 uM Rabin8, 25°C) is 7600 M⁻¹ s⁻¹ in test [1], 100000 M⁻¹ s⁻¹ in test [2] and 87000 M⁻¹ s⁻¹ in test [3].
